From patent EP3342782A1

Target: extracellular region of human V158 FcγRIIIa with C-terminal 6x His-tag and GST-tag (human) (UniProt P08637)
Assay: SPR; fold vs WT

Row | Fold WT [fold] | Substance
1 | 5.5 | E258H alemtuzumab (antibody)
2 | 1.77 | E258Y alemtuzumab (antibody)
3 | 384 | E272H alemtuzumab (antibody)
4 | 2.56 | E283L alemtuzumab (antibody)
5 | 5.66 | H268D alemtuzumab (antibody)
6 | 11.2 | I332D alemtuzumab (antibody)
7 | 22.4 | K246H alemtuzumab (antibody)
8 | 7.07 | K246Y alemtuzumab (antibody)
9 | 3.13 | K326E alemtuzumab (antibody)
10 | 1.41 | R255Y alemtuzumab (antibody)
11 | 3.28 | S239E alemtuzumab (antibody)
12 | 2.62 | S267E alemtuzumab (antibody)
13 | 1.86 | T260H alemtuzumab (antibody)

Target: human FcγRIIIa on PBMCs expressing heterozygous V158/F158 FcγRIIIa (human) (UniProt P08637)
Assay: cell-based or functional assay

Row | ADCC log(EC50) | Substance
14 | 0.49 log(ng/ml) | S239D/I332E alemtuzumab (antibody)
15 | 0.6 log(ng/ml) | V264I/I332E alemtuzumab (antibody)
